B1: synthetic triple-helical peptide pepfreq (peptide)
chain: YPPGPPGPPGPPGPRGRRGLHGLPGPPGPPGPPGPPG
HELM: PEPTIDE1{Y.P.[Hyp].G.P.[Hyp].G.P.[Hyp].G.P.[Hyp].G.P.R.G.R.R.G.L.H.G.L.[Hyp].G.P.[Hyp].G.P.[Hyp].G.P.[Hyp].G.P.[Hyp].G.[am]}$$$$V2.0; N-terminus assumed
SMILES: CC(C)C[C@H](NC(=O)CNC(=O)[C@H](CCCNC(=N)N)NC(=O)[C@H](CCCNC(=N)N)NC(=O)CNC(=O)[C@H](CCCNC(=N)N)NC(=O)[C@@H]1CCCN1C(=O)CNC(=O)[C@@H]1C[C@@H](O)CN1C(=O)[C@@H]1CCCN1C(=O)CNC(=O)[C@@H]1C[C@@H](O)CN1C(=O)[C@@H]1CCCN1C(=O)CNC(=O)[C@@H]1C[C@@H](O)CN1C(=O)[C@@H]1CCCN1C(=O)CNC(=O)[C@@H]1C[C@@H](O)CN1C(=O)[C@@H]1CCCN1C(=O)[C@@H](N)Cc1ccc(O)cc1)C(=O)N[C@@H](Cc1c[nH]cn1)C(=O)NCC(=O)N[C@@H](CC(C)C)C(=O)N1C[C@H](O)C[C@H]1C(=O)NCC(=O)N1CCC[C@H]1C(=O)N1C[C@H](O)C[C@H]1C(=O)NCC(=O)N1CCC[C@H]1C(=O)N1C[C@H](O)C[C@H]1C(=O)NCC(=O)N1CCC[C@H]1C(=O)N1C[C@H](O)C[C@H]1C(=O)NCC(=O)N1CCC[C@H]1C(=O)N1C[C@H](O)C[C@H]1C(=O)NCC(N)=O
notes: guest made of the residue most frequent at each position in the selection; Triple helix by CD; annealed before use; source: synthetic peptide (Fmoc solid phase, RP-HPLC purified)
B2: synthetic triple-helical peptide pep5 (peptide)
chain: YPPGPPGPPGPPGPRGPRGLTGFPGPPGPPGPPGPPG
HELM: PEPTIDE1{Y.P.[Hyp].G.P.[Hyp].G.P.[Hyp].G.P.[Hyp].G.P.R.G.P.R.G.L.T.G.F.[Hyp].G.P.[Hyp].G.P.[Hyp].G.P.[Hyp].G.P.[Hyp].G.[am]}$$$$V2.0; N-terminus assumed
SMILES: CC(C)C[C@H](NC(=O)CNC(=O)[C@H](CCCNC(=N)N)NC(=O)[C@@H]1CCCN1C(=O)CNC(=O)[C@H](CCCNC(=N)N)NC(=O)[C@@H]1CCCN1C(=O)CNC(=O)[C@@H]1C[C@@H](O)CN1C(=O)[C@@H]1CCCN1C(=O)CNC(=O)[C@@H]1C[C@@H](O)CN1C(=O)[C@@H]1CCCN1C(=O)CNC(=O)[C@@H]1C[C@@H](O)CN1C(=O)[C@@H]1CCCN1C(=O)CNC(=O)[C@@H]1C[C@@H](O)CN1C(=O)[C@@H]1CCCN1C(=O)[C@@H](N)Cc1ccc(O)cc1)C(=O)N[C@H](C(=O)NCC(=O)N[C@@H](Cc1ccccc1)C(=O)N1C[C@H](O)C[C@H]1C(=O)NCC(=O)N1CCC[C@H]1C(=O)N1C[C@H](O)C[C@H]1C(=O)NCC(=O)N1CCC[C@H]1C(=O)N1C[C@H](O)C[C@H]1C(=O)NCC(=O)N1CCC[C@H]1C(=O)N1C[C@H](O)C[C@H]1C(=O)NCC(=O)N1CCC[C@H]1C(=O)N1C[C@H](O)C[C@H]1C(=O)NCC(N)=O)[C@@H](C)O
notes: Triple helix by CD; annealed before use; source: synthetic peptide (Fmoc solid phase, RP-HPLC purified)
B3: synthetic triple-helical peptide pep6 (peptide)
chain: YPPGPPGPPGPPGPNGRRGFMGMPGPPGPPGPPGPPG
HELM: PEPTIDE1{Y.P.[Hyp].G.P.[Hyp].G.P.[Hyp].G.P.[Hyp].G.P.N.G.R.R.G.F.M.G.M.[Hyp].G.P.[Hyp].G.P.[Hyp].G.P.[Hyp].G.P.[Hyp].G.[am]}$$$$V2.0; N-terminus assumed
SMILES: CSCC[C@H](NC(=O)[C@H](Cc1ccccc1)NC(=O)CNC(=O)[C@H](CCCNC(=N)N)NC(=O)[C@H](CCCNC(=N)N)NC(=O)CNC(=O)[C@H](CC(N)=O)NC(=O)[C@@H]1CCCN1C(=O)CNC(=O)[C@@H]1C[C@@H](O)CN1C(=O)[C@@H]1CCCN1C(=O)CNC(=O)[C@@H]1C[C@@H](O)CN1C(=O)[C@@H]1CCCN1C(=O)CNC(=O)[C@@H]1C[C@@H](O)CN1C(=O)[C@@H]1CCCN1C(=O)CNC(=O)[C@@H]1C[C@@H](O)CN1C(=O)[C@@H]1CCCN1C(=O)[C@@H](N)Cc1ccc(O)cc1)C(=O)NCC(=O)N[C@@H](CCSC)C(=O)N1C[C@H](O)C[C@H]1C(=O)NCC(=O)N1CCC[C@H]1C(=O)N1C[C@H](O)C[C@H]1C(=O)NCC(=O)N1CCC[C@H]1C(=O)N1C[C@H](O)C[C@H]1C(=O)NCC(=O)N1CCC[C@H]1C(=O)N1C[C@H](O)C[C@H]1C(=O)NCC(=O)N1CCC[C@H]1C(=O)N1C[C@H](O)C[C@H]1C(=O)NCC(N)=O
notes: as for B2
B4: synthetic triple-helical peptide pep7 (peptide)
chain: YPPGPPGPPGPPGPKGRRGFHGLPGPPGPPGPPGPPG
HELM: PEPTIDE1{Y.P.[Hyp].G.P.[Hyp].G.P.[Hyp].G.P.[Hyp].G.P.K.G.R.R.G.F.H.G.L.[Hyp].G.P.[Hyp].G.P.[Hyp].G.P.[Hyp].G.P.[Hyp].G.[am]}$$$$V2.0; N-terminus assumed
SMILES: CC(C)C[C@H](NC(=O)CNC(=O)[C@H](Cc1c[nH]cn1)NC(=O)[C@H](Cc1ccccc1)NC(=O)CNC(=O)[C@H](CCCNC(=N)N)NC(=O)[C@H](CCCNC(=N)N)NC(=O)CNC(=O)[C@H](CCCCN)NC(=O)[C@@H]1CCCN1C(=O)CNC(=O)[C@@H]1C[C@@H](O)CN1C(=O)[C@@H]1CCCN1C(=O)CNC(=O)[C@@H]1C[C@@H](O)CN1C(=O)[C@@H]1CCCN1C(=O)CNC(=O)[C@@H]1C[C@@H](O)CN1C(=O)[C@@H]1CCCN1C(=O)CNC(=O)[C@@H]1C[C@@H](O)CN1C(=O)[C@@H]1CCCN1C(=O)[C@@H](N)Cc1ccc(O)cc1)C(=O)N1C[C@H](O)C[C@H]1C(=O)NCC(=O)N1CCC[C@H]1C(=O)N1C[C@H](O)C[C@H]1C(=O)NCC(=O)N1CCC[C@H]1C(=O)N1C[C@H](O)C[C@H]1C(=O)NCC(=O)N1CCC[C@H]1C(=O)N1C[C@H](O)C[C@H]1C(=O)NCC(=O)N1CCC[C@H]1C(=O)N1C[C@H](O)C[C@H]1C(=O)NCC(N)=O
notes: as for B2
B5: synthetic triple-helical peptide pep3 (peptide)
chain: YPPGPPGPPGPPGPRGHRGFLGLPGPPGPPGPPGPPG
HELM: PEPTIDE1{Y.P.[Hyp].G.P.[Hyp].G.P.[Hyp].G.P.[Hyp].G.P.R.G.H.R.G.F.L.G.L.[Hyp].G.P.[Hyp].G.P.[Hyp].G.P.[Hyp].G.P.[Hyp].G.[am]}$$$$V2.0; N-terminus assumed
SMILES: CC(C)C[C@H](NC(=O)[C@H](Cc1ccccc1)NC(=O)CNC(=O)[C@H](CCCNC(=N)N)NC(=O)[C@H](Cc1c[nH]cn1)NC(=O)CNC(=O)[C@H](CCCNC(=N)N)NC(=O)[C@@H]1CCCN1C(=O)CNC(=O)[C@@H]1C[C@@H](O)CN1C(=O)[C@@H]1CCCN1C(=O)CNC(=O)[C@@H]1C[C@@H](O)CN1C(=O)[C@@H]1CCCN1C(=O)CNC(=O)[C@@H]1C[C@@H](O)CN1C(=O)[C@@H]1CCCN1C(=O)CNC(=O)[C@@H]1C[C@@H](O)CN1C(=O)[C@@H]1CCCN1C(=O)[C@@H](N)Cc1ccc(O)cc1)C(=O)NCC(=O)N[C@@H](CC(C)C)C(=O)N1C[C@H](O)C[C@H]1C(=O)NCC(=O)N1CCC[C@H]1C(=O)N1C[C@H](O)C[C@H]1C(=O)NCC(=O)N1CCC[C@H]1C(=O)N1C[C@H](O)C[C@H]1C(=O)NCC(=O)N1CCC[C@H]1C(=O)N1C[C@H](O)C[C@H]1C(=O)NCC(=O)N1CCC[C@H]1C(=O)N1C[C@H](O)C[C@H]1C(=O)NCC(N)=O
notes: as for B2

This series deals with the molecule itself. The series can be described thus: circular dichroism with thermal melting; peptides in PBS, heated at 95 °C, annealed at 4 °C overnight; [θ]225 followed from 4 to 85 °C; chains of one peptide forming a triple helix. On the technique in general: Circular dichroism is the unequal absorption of left and right circularly polarised light.
On to B1, for which the binding result was “binds”.

With B2, the binding result was “binds”.

In the case of B3, the binding result is on record as “binds”.

B4: the binding result is listed as “binds”.

As for B5, the binding result was “binds”.

(Values after publication PMC11533527, “A yeast two-hybrid system to obtain triple-helical ligands from combinatorial random peptide libraries” (The Journal of Biological Chemistry, 2024).)
